Data: patent US20250019457A1 (IBIO, published 2025)
Like-named read-outs stand apart in the source and are kept apart here.

B1: Gen 1 (antibody, V domains shown)
VH: EVQLVESGGGLVQPGGSLRLSCAASGFTFNTYAMNWVRQAPGKGLEWVGRIRSKYNNYATYYADSVKGRFTISRDDSKNTLYLQMNSLRAEDTAVYYCVRHGNFGNSYVSWFAYWGQGTLVTVSS
VL: DIQMTQSPSSLSASVGDRVTITCRSSTGAVTTSNYANWVQQKPGKAPKGLIGGTNKRAPGVPARFSGSGSGTDFTLTISSLQPEDFATYYCALWYSNLWVFGQGTKVEIK
notes: also called CD3 Gen 1; Gen1 CD3
B2: SD-025096 (antibody, V domains shown)
VH: QVQLQQSGAELVRPGASVKLSCKASGYTFTSYWINWVKQRPGQGLEWIGNIFPSGSYTNYNQKFKDRATLTVDKSSSTAFMQLSSPTSEDSAIYFCTRGSGFDYWGQGTTLTVSS
VL: DIVLTQSPATLSVTPGDSVSLSCRASQSISNNLHWYQQKSHESPRLLIKYASQSISGIPSRFSGSGSGTDFTLSINSVETEDFGMYFCQQSNSWPFTFGSGTKLEIK
notes: Mouse/human chimera; also called Human IgG1 SD-025096
B3: SD-661765 (antibody, V domains shown)
VH: QVQLVETGGDLVKPGGSLKLSCAASGFTFSTYGMSWVRQTPDKRLEWVATISSGGIYTYYSDSVKGRFTISRDNAKNTLYLQMSSLKSEDTAMYYCARDGNYLGFDFWGQGTTLTVSS
VL: DIVMTQSPASLAVSLGQRATISCRASESVESYGNSFMNWYQQKPGQPPKLLIYRASNLESGIPARFSGSGSRTDFTLTINPVEADDVATYYCQQSYEDPRTFGGGTKLEIK
notes: Mouse/human chimera
B4: SD-071877 (antibody, V domains shown)
VH: AVTLDESGGGLQTPGGALSLVCKASGFDFSGYGMGWVRQAPGKGLEWVAGITNDGRYIGHGSAVKGRATISRDNGQSTVRLQLNNLRAEDTGTYFCTKCAYRSGCDYEAGSIDAWGHGTEVIVSS
VL: ALALTQPSSVSANLGGTVKITCSGDNNWYGWYQQKSPGSAPVTVIYYDDKRPSDIPSRFSGSRSGSTGTLTITGVQAEDEAVYFCGNRDSSAGYVGIFGAGTTLTVL
notes: Chicken/human chimera
B5: SD-813149 (antibody, V domains shown)
VH: EVKLDESGGGLVKPGGSLKLSCAASGFTFSSYTMSWVRQTPEKRLEWVATINSDGIYTYYPDSVKGRFTISRDNAKNTLYLQMSSLKSEDTAMYYCTRVHYYGYDAMDYWGQGTSVTVSS
VL: EIQMTQSPASLSASVGETVTITCRASENIYSYLAWYQQKQGKSPQLLVYSAKTLAEGVPSRFSGSGSGTHFSLKINSLQPEDFGSYYCQHHYGIPLTFGAGTKLELK
notes: Mouse/human chimera
B6: SD-175533 (antibody, V domains shown)
VH: QIQLQESGPGLMKPSQSLSLTCTVTGYSITSDYAWNWIRQFPGNKLEWMGHITYSGSTSYNPSLKSRISISRDTSKNQFFLQLNSVTTGDTATYYCARGGSTLISGDFDYWGQGTTLTVSS
VL: DIVLTQSHKFMSTSVGDRVSITCKASQDVSTAVAWYQQKPGQSPKLLIYSASYRYTGVPDRFTGSGSGTDFTFTISSVQAEDLAVYYCQQHYSTPLTFGAGTKLELK
notes: Mouse/human chimera

Columns and labels:
[1] = biological target: T1, recombinant CD3ϵδ-HRP heterodimer (Acro Biosystems CDD-HR2W3) (Homo sapiens (Human), UniProt P07766 23-126; P04234 22-105, Conjugated to horseradish peroxidase (HRP). The site and chemistry are not stated and the letters do not carry it.); assay: direct ELISA: antibody coated at 5 ug/mL, CD3ϵδ-HRP titrated (the axis is the CD3ϵδ-HRP concentration), absorbance at 450 nm
T1 construct: Bought HRP conjugate; also called CD3ϵδ heterodimer; not shown: The HRP conjugate and any vendor tags or fusion partners on the two chains (Acro Biosystems CDD-HR2W3); copies: 1 + 1

[2] = biological target: T2, human TROP2 (purified recombinant antigen, Acro Biosystems Cat #TR2-H5223) (human, UniProt P09758 27-274); assay: MSD assay: biotinylated TROP2 on streptavidin plate, antibody titrated, anti-human SULFO-TAG detection
T2 construct: Bought recombinant protein; also called huTROP2
T2 sequence: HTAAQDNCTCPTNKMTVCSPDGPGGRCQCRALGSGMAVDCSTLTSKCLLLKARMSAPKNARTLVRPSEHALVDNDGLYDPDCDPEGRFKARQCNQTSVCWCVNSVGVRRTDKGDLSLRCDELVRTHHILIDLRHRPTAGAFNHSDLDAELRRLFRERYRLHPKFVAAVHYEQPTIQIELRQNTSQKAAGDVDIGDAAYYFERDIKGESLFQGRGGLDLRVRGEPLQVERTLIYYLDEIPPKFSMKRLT

[3] = biological target: T3, human EpCAM (purified recombinant antigen, Acro Biosystems Cat #EPM-H5223) (human, UniProt P16422 24-265); assay: SPR, Carterra LSA; antibody captured on anti-human IgG, antigen injected
T3 construct: Bought recombinant protein
T3 sequence: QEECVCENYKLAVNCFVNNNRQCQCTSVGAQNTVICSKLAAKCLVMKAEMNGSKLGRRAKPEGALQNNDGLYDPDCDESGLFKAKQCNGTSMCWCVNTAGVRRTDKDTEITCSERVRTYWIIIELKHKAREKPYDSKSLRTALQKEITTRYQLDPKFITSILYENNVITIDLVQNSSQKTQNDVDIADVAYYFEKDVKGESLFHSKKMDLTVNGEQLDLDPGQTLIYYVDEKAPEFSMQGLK

[4] = biological target: T4, mouse TROP2 (purified recombinant antigen, Acro Biosystems Cat #TR2-M52H6) (mouse, UniProt Q8BGV3 25-270); assay: as above
T4 construct: Bought recombinant protein; also called msTROP2
T4 sequence: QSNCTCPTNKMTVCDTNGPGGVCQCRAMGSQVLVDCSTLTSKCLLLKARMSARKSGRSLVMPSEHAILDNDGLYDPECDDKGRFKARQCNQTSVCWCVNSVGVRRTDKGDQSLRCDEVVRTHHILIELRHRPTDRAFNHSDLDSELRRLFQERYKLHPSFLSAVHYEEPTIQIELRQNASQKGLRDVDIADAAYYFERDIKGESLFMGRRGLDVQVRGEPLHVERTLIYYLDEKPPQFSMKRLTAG

[5] = biological target: T5, human Trop2 on cells (FaDu cells, endogenous; ExpiCHO cells overexpressing human Trop2) (human, UniProt P09758 27-323); assay: flow cytometry on FaDu cells (endogenous human Trop2); average of n=1-3 experiments
T5 construct: Cell-surface form
T5 sequence: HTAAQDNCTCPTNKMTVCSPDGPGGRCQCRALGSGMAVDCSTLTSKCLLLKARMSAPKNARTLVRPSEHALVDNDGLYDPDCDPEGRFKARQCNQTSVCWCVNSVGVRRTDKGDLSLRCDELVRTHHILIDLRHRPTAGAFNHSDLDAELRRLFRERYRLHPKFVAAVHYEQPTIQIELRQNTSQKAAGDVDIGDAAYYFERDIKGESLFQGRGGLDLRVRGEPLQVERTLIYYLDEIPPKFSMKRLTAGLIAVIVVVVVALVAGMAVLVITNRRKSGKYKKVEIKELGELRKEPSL

[6] = biological target: T2, human TROP2 (purified recombinant …); assay: SPR, Carterra LSA; antibody captured on anti-human IgG, antigen injected; 1:1 fit
[7] = biological target: T2, human TROP2 (purified recombinant …); assay: as above; remark: listed apart in the source
[8] = biological target: T6, cynomolgus/rhesus TROP2 (purified recombinant antigen, Acro Biosystems Cat #TR2-R52H3) (cynomolgus/rhesus, UniProt P09758 27-274 (human entry)); assay: as above
T6 construct: Bought recombinant protein; also called cyTROP2; cyno/rhesus TROP2
T6 chain: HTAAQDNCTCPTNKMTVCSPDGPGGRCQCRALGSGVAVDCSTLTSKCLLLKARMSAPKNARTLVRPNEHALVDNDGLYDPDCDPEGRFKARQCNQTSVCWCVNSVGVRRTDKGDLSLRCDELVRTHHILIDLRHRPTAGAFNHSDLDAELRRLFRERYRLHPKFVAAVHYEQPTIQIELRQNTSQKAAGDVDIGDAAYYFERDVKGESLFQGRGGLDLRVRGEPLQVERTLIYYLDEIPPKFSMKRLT

[9] = biological target: T7, mouse Trop2 on ExpiCHO cells overexpressing mouse Trop2 (mouse, UniProt Q8BGV3 25-317); assay: flow cytometry on ExpiCHO cells overexpressing mouse Trop2, percent of cells bound; histogram overlay at 66.67 nM
T7 construct: Cell-surface form
T7 sequence: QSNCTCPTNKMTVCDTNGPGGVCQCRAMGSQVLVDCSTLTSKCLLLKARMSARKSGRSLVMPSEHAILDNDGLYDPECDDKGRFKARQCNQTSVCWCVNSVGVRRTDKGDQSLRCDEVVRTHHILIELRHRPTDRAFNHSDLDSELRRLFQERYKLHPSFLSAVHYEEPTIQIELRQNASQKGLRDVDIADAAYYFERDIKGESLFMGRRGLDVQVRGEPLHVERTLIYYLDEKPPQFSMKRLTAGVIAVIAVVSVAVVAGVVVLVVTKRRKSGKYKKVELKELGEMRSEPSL

T1 sequence (P07766 23-126 limits assumed, stated change not applied, chain 1 of 2): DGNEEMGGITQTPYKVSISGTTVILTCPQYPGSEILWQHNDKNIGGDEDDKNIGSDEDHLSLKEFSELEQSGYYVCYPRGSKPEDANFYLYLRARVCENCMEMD
T1 sequence (P04234 22-105 limits assumed, stated change not applied, chain 2 of 2): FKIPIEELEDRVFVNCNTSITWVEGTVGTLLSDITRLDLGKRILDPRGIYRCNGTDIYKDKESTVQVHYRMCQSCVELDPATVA

Binder | EC50 (read off the curve) [1] | EC50 (read off the curve) [2] | binding result [3] | binding result [4] | EC50 [5] | Kd [6] | koff [6] | kon [6] | Kd [7] | Kd [8] | binding result [9]
B1 | ~0.04 µg/mL |  |  |  |  |  |  |  |  |  | 
B2 |  | ~0.2 nM | no binding (tested: 1 µM top concentration) | no binding (tested: 1 µM top concentration) | 1.99 nM | 5.47 nM | 0.00165 s⁻¹ | 301000 M⁻¹ s⁻¹ | 5.47 nM | 6.55 nM | 
B3 |  | ~0.2 nM | no binding (tested: 1 µM top concentration) | no binding (tested: 1 µM top concentration) | 1.07 nM | 1.65 nM | 0.000574 s⁻¹ | 348000 M⁻¹ s⁻¹ | 1.65 nM | 1.82 nM | 
B4 |  |  | no binding (tested: 1 µM top concentration) |  | 1.09 nM | 0.31 nM | 0.000143 s⁻¹ | 457000 M⁻¹ s⁻¹ | 0.31 nM | 4.96 nM | no binding (tested: 66.67 nM)
B5 |  | ~0.2 nM | no binding (tested: 1 µM top concentration) | no binding (tested: 1 µM top concentration) | 2.19 nM | 0.43 nM | 0.000163 s⁻¹ | 377000 M⁻¹ s⁻¹ | 0.43 nM | 0.38 nM | 
B6 |  | ~0.3 nM | no binding (tested: 1 µM top concentration) | no binding (tested: 1 µM top concentration) | 2.36 nM | 0.2 nM | 3.96e-05 s⁻¹ | 197000 M⁻¹ s⁻¹ | 0.2 nM | 0.1 nM | 
